Data on 1 molecule can be found in patent publication US20250304916A1, “METHODS AND COMPOSITIONS FOR GENERATING VASCULAR LEPTOMENINGEAL CELLS” (Trailhead Biosystems Inc., priority 2024, published 2025).

This assay concerns MBP expression. The experiment in a line: HD-DoE 8-factor model (stage 4), optimized for maximum expression of MBP. It counts as cell-based, human. Particulars: model optimized for MBP at 274; FIG. 6.

B1: NT-3: neurotrophin-3, a Trk C pathway agonist (protein, UniProt P20783 139-257, looked up)
Neurotrophin-3: YAEHKSHRGEYSVCDSESLWVTDKSSAIDIRGHQVTVLGEIKTGNSPVKQYFYETRCKEARPVKNGCRGIDDKHWNSQCKTSQTYVRALTSENNKLVGWRWIRIDTSCVCALSRKIGRT
As to B1, the “factor contribution, positive impact on MBP expression” value stood at 12.1.
